Data: patent US20140302063A1 (SECRETARY OF STATE FOR HEALTH, published 2014)

B1: R1a-C5 (VHH)
VHH: QVQLVESGGGLVQPGGSLRLSCAASNDIFSFYTMGWYLQAIGKQREPVAVIGNGGNTNYAESVKGRFTISRDGAKNTAYLQMNSLKPEDTAVYYCMASGPGGLNVWGQGTQVTVSS
B2: R1a-A5 (VHH)
VHH: QVQLVESGGGLVQPGGSLRLSCSASGSAVLFSTYPMSWYRQAPGKQRELVAAVTTDGSTSYADYAKGRFTISRDNAKNTVYLQMNSLKPEDTAVYYCNARDGFFNRYDYWGQGTQVTVSS
B3: R2b-E8 (VHH)
VHH: QVQLVESGGGLVQPGGSLRLSCAASGSFFSRYRMGWYRQAPGEQRELVAGITYDDSTNYAGSVKGRFTISRDNAKNTVHLQMNSLKPEDTAVYYCNLNPPGNLYWGQGTQVTVSS
B4: R1a-B6 (VHH)
VHH: QVQLVESGGGLVQPGGSLRLSCAASGSFFSRYRMGWYRQAPGEQRELVASIAYDGSTSYADPVKGRFTISRDNANTVHLQMYSLKPDDTAVYYCNLDPPGILYWGQGTQVTVSS
B5: R2a-G8 (VHH)
VHH: QLQLAESGGGLVQAGGSLRLSCAASGSTLNNNAIGWFRQAPGKEREGVSCMNSRDGTTNYADSVKGRFTISRDVAKNTVYLQMNSLKPEDTAVYFCAVKGFAPFLIGCPWGKAEYDYWGQGTQVTVSS
B6: R1a-H6 (VHH)
VHH: QVQLVESGGGLVQAGDSLRLSCTASVLTFSLYRVGWFRQAPGKEREFVAAIDWGDGPTTYADSVKGRFTISRDNAERTAYLQINSLKPEDTAVYYCGAGNTGSSDRSSSYVHWGQGTQVTVSS
B7: R2b-D9 (VHH)
VHH: QVQLVESGGGLVQPGGSLRLSCLASGSAFSLYTMGWYRQAPGNQRELVAAITSGESTNYADSVKGRFTISRDNAKNTVYLQMNSLKPEDTAVYYCNADPLSTGWGQYSYWGQGTQVTVSS

Experiments:
Assay in all cases: ELISA, inactivated virus
[1] = molecular target: A/Duck/Sing-Q/97 (H5N3) inactivated viral preparation (Influenza A virus A/Duck/Sing-Q/97 (H5N3))
[2] = molecular target: A/HongKong/213/2003 (H5N1) inactivated viral preparation (Influenza A virus A/HongKong/213/2003 (H5N1))
[3] = molecular target: A/HongKong/1073/99 (H9N2) inactivated viral preparation (Influenza A virus A/HongKong/1073/99 (H9N2))
[4] = molecular target: A/TurkTurk/1/2005 (H5N1) inactivated viral preparation (Influenza A virus A/turkey/Turkey/1/2005 (H5N1))
[5] = molecular target: A/mallard/Eng/727/06 (H2N3) inactivated viral preparation (Influenza A virus A/mallard/Eng/727/06 (H2N3))
[6] = molecular target: A/Indonesia/05/2005 (H5N1) inactivated viral preparation (Influenza A virus A/Indonesia/05/2005 (H5N1))
[7] = molecular target: A/Vietnam/119/2004 (H5N1) inactivated viral preparation (Influenza A virus A/Vietnam/119/2004 (H5N1))

Binder	EC50 [1]	EC50 [2]	EC50 [3]	EC50 [4]	EC50 [5]	EC50 [6]	EC50 [7]
B1	7.57 µg/mL	2.9 µg/mL	4.48 µg/mL	0.15 µg/mL	0.06 µg/mL	1.17 µg/mL	2.89 µg/mL
B2	0.27 µg/mL	0.27 µg/mL	–	0.13 µg/mL	0.006 µg/mL	0.15 µg/mL	0.25 µg/mL
B3	4.98 µg/mL	1.2 µg/mL	5.63 µg/mL	0.89 µg/mL	0.002 µg/mL	0.8 µg/mL	1.83 µg/mL
B4	1.32 µg/mL	0.37 µg/mL	2.3 µg/mL	0.44 µg/mL	0.102 µg/mL	0.42 µg/mL	0.82 µg/mL
B5	9.67 µg/mL	6.2 µg/mL	–	1.93 µg/mL	2.5 µg/mL	5.7 µg/mL	3.36 µg/mL
B6	–	–	5.7 µg/mL	–	–	–	–
B7	5.64 µg/mL	2.8 µg/mL	–	0.76 µg/mL	0.06 µg/mL	0.58 µg/mL	1.81 µg/mL
